Measured values as given in patent US20140294826A1 (TUFTS UNIVERSITY, published 2014).

T1: Botulinum neurotoxin serotype B (BoNT/B) holotoxin (Clostridium botulinum, UniProt P10844 2-1291)
T1 sequence: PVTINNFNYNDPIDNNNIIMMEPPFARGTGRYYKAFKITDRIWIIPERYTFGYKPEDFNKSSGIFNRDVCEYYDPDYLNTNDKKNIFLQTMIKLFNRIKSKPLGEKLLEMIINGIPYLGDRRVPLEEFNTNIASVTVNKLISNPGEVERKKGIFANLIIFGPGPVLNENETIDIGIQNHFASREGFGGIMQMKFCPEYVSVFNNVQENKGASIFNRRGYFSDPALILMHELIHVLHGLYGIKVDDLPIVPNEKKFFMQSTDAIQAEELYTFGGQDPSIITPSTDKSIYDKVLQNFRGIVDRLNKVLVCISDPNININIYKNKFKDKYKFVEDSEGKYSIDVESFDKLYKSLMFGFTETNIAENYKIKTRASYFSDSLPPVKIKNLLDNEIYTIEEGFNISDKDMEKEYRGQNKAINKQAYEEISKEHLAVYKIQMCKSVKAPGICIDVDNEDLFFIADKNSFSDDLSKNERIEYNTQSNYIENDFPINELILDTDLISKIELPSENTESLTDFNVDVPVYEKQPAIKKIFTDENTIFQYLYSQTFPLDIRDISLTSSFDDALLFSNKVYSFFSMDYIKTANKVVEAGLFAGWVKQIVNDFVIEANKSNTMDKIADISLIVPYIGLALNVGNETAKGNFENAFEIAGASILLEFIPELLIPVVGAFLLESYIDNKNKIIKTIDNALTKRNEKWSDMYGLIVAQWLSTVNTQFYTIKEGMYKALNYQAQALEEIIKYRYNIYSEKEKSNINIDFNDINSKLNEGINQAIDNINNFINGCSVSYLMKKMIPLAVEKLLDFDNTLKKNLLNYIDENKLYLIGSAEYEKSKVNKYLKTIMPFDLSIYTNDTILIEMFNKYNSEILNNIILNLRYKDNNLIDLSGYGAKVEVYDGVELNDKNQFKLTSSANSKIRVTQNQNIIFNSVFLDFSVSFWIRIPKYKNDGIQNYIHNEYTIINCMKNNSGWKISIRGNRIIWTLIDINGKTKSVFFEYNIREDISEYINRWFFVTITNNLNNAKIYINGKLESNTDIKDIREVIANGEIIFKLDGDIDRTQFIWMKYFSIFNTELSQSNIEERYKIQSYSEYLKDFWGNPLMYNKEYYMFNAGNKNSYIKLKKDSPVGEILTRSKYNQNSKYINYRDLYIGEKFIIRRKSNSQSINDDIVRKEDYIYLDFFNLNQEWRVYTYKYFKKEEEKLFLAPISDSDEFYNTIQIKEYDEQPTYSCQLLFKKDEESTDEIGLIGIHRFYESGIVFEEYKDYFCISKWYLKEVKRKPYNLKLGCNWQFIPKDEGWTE

B1: Stx1-A9 (VHH)
VHH: QVQLVETGGGLAQAGDSLRLSCVEPGRTLDMYAMGWIRQAPGEEREFVASISGVGGSPRYADSVKGRFTISKDNTKSTIWLQMNSLKPEDTAVYYCAAGGDIYYGGSPQWRGQGTRVTVSS
B2: A9/A5/G1 heterotrimer VNA (designed binder)
chain: QVQLVETGGGLAQAGDSLRLSCVEPGRTLDMYAMGWIRQAPGEEREFVASISGVGGSPRYADSVKGRFTISKDNTKSTIWLQMNSLKPEDTAVYYCAAGGDIYYGGSPQWRGQGTRVTVSSEPKTPKPQGGGGSGGGGSGGGGSQVQLVESGGGLVQPGGSLRLSCAALEFTLEDYAIAWFRQAPGKEREGVSCISKSGVTKYTDSVKGRFTVARDNAKSTVILQMNNLRPEDTAVYNCAAVRPVFVDSVCTLATRYTYWGEGTQVTVSSAHHSEDPGGGGSGGGGSGGGGSQVQLVESGGGLVQPGESLRLSCVASASTFSTSLMGWVRQAPGKGLESVAEVRTTGGTFYAKSVAGRFTISRDNAKNTLYLQMNSLKAEDTGVYYCTAGAGPIATRYRGQGTQVTVSSAHHSEDP
B3: A9/D4 heterodimer VNA (designed binder)
chain: QVQLVETGGGLAQAGDSLRLSCVEPGRTLDMYAMGWIRQAPGEEREFVASISGVGGSPRYADSVKGRFTISKDNTKSTIWLQMNSLKPEDTAVYYCAAGGDIYYGGSPQWRGQGTRVTVSSEPKTPKPQGGGGSGGGGSGGGGSQVQLVESGGGLVQAGGSLRLSCAASGRINGDYAMGWFRQAPGEEREFVAVNSWIGGSTYYTDSVKGRFTLSRDNAKNTLSLQMNSLKPEDTAVYYCAAGHYTDFPTYFKEYDYWGQGTQVTVSSEPKTPKPQ
B4: Stx-A4 (VHH)
VHH: QVQLVESGGGLVQPGGSLRLSCAASGFTLGSYHIGWFRHPPGKEREGTSCLSSRGDYTKYAEAVKGRFTISRDNTKSTVYLQMNNLKPEDTGIYVCAAIRPVLSDSHCTLAARYNYWGQGTQVTVSS
B5: Stx-A5 (VHH)
VHH: QVQLVESGGGLVQPGGSLRLSCAALEFTLEDYAIAWFRQAPGKEREGVSCISKSGVTKYTDSVKGRFTVARDNAKSTVILQMNNLRPEDTAVYNCAAVRPVFVDSVCTLATRYTYWGEGTQVTVSS
B6: Stx1-D4 (VHH)
VHH: QVQLVESGGGLVQAGGSLRLSCAASGRINGDYAMGWFRQAPGEEREFVAVNSWIGGSTYYTDSVKGRFTLSRDNAKNTLSLQMNSLKPEDTAVYYCAAGHYTDFPTYFKEYDYWGQGTQVTVSS
B7: A5/D10 heterodimer VNA (designed binder)
chain: QVQLVESGGGLVQPGGSLRLSCAALEFTLEDYAIAWFRQAPGKEREGVSCISKSGVTKYTDSVKGRFTVARDNAKSTVILQMNNLRPEDTAVYNCAAVRPVFVDSVCTLATRYTYWGEGTQVTVSSAHHSEDPGGGGSGGGGSGGGGSQVQLVETGGLVQAGGSLRLSCAASGVPFSDYTMAWFRQAPGKEREVVARITWRGGGPYYGNSGNGRFAISRDIAKSMVYLHMDSLKPEDTAVYYCAASRLRPALASMASDYDYWGQGTQVSVSSEPKTPKPQ
B8: Stx2-D10 (VHH)
VHH: QVQLVETGGLVQAGGSLRLSCAASGVPFSDYTMAWFRQAPGKEREVVARITWRGGGPYYGNSGNGRFAISRDIAKSMVYLHMDSLKPEDTAVYYCAASRLRPALASMASDYDYWGQGTQVSVSS
B9: Stx2-H6 (VHH)
VHH: QVQLVETGGGLVQPGGSLRLSCAASGFSLDPYVIGWFRQAPGKEREGVSCITSRAASRTSVDSVNERFTISRDNAKNTVDLHINNLKPEDSGVYYCAAVPPAKLPLFSLCRSLPAKYDYWGQGTQVTVSS
B10: Stx2-G1 (VHH)
VHH: QVQLVESGGGLVQPGESLRLSCVASASTFSTSLMGWVRQAPGKGLESVAEVRTTGGTFYAKSVAGRFTISRDNAKNTLYLQMNSLKAEDTGVYYCTAGAGPIATRYRGQGTQVTVSS
B11: G1/D10 heterodimer VNA (designed binder)
chain: QVQLVESGGGLVQPGESLRLSCVASASTFSTSLMGWVRQAPGKGLESVAEVRTTGGTFYAKSVAGRFTISRDNAKNTLYLQMNSLKAEDTGVYYCTAGAGPIATRYRGQGTQVTVSSAHHSEDPGGGGSGGGGSGGGGSQVQLVETGGLVQAGGSLRLSCAASGVPFSDYTMAWFRQAPGKEREVVARITWRGGGPYYGNSGNGRFAISRDIAKSMVYLHMDSLKPEDTAVYYCAASRLRPALASMASDYDYWGQGTQVSVSSEPKTPKPQ
B12: Stx2-G9 (VHH)
VHH: QVQLVESGGGLVQPGGSLTLSCTASGFTLNSYKIGWFRQAPGKEREGVSCINSGGNLRSVEGRFTISRDNTKNTVSLHMDSLKPEDTGVYHCAAAPALNVFSPCVLAPRYDYWGQGTQVTVSS
B13: Stx2-D2 (VHH)
VHH: QVQLVESGGGLVQPGGSLGLSCAMSGTTQDYSAVGWFRQAPGKEREGVSCISRSGRRTNYADSVRGRFTISRDNAKDTVYLQMNSLKPDDTAVYYCAARKTDMSDPYYVGCNGMDYWGKGTLVTVSS
B14: Stx2-A6 (VHH)
VHH: QVQLVESGGGLVQPGGSLKLSCAASGFTLADYVTVWFRQAPGKSREGVSCISSSRGTPNYADSVKGRATVSRNNANNTVYLQMNGLKPDDTAIYYCAAIRPARLRAYRECLSSQAEYDYWGQGTQVTVSS
B15: ciB-A11/B5 heterodimer (designed binder)
chain: QVQLVEGGGGLVQPGGALRLSCAASVFGMDYYYIGWVRQAPGKEREGVSCISNIGRTHYADSVKGRFTISRDNAKNTVYLQMNSLKPEDTAVYYCAAAPLVGNYCPASYEYESWGQGTQVTVSSAHHSEDPSGGGGSGGGGSGGGGSQVQLVESGGGLVQPGGSLRLSCAASGQSLDNYIIGWFRQAPGKEREGVSCIDRTGTVTHYADSVKGRFTISTDNVKNTVYLEMNDLKPEDTATYFCAAERRWGVVSVCVISDYYFDSWGQGTQVTVSSAHHSEDPS
B16: ciB-B5 (VHH)
VHH: QVQLVESGGGLVQPGGSLRLSCAASGQSLDNYIIGWFRQAPGKEREGVSCIDRTGTVTHYADSVKGRFTISTDNVKNTVYLEMNDLKPEDTATYFCAAERRWGVVSVCVISDYYFDSWGQGTQVTVSS
B17: ciB-A11 (VHH)
VHH: QVQLVEGGGGLVQPGGALRLSCAASVFGMDYYYIGWVRQAPGKEREGVSCISNIGRTHYADSVKGRFTISRDNAKNTVYLQMNSLKPEDTAVYYCAAAPLVGNYCPASYEYESWGQGTQVTVSS

Molecular target: Shiga toxin 1 (Stx1) (Escherichia coli O157:H7) (UniProt P08026)
Test: SPR, Stx1 immobilised

Shiga toxin 1 (Stx1) (Escherichia coli O157:H7), sequence (P08026 23-315): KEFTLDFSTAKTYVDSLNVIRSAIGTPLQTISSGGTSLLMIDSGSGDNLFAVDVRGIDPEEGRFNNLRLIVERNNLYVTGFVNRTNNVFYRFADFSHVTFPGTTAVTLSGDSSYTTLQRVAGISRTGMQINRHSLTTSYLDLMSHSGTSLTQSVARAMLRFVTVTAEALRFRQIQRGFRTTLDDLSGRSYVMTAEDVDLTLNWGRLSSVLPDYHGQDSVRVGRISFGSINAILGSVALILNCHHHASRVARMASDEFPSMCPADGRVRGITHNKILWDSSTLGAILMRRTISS

Q: B1 was tested. Which Kd did it give?
A: 7.6 nM

Q: For B2, which Kd is on record?
A: 0.46 nM

Q: B3 was tested. Which Kd did it give?
A: 1.2 nM

Q: With B4 as the binder, how does the Kd read?
A: 7.2 nM

Q: With B5 as the binder, how does the Kd read?
A: 12.5 nM

Q: With B6 as the binder, how does the Kd read?
A: 0.128 nM

Q: How did the Kd turn out when B7 was run?
A: 9.2 nM

Molecular target: Shiga toxin 1 (Stx1) (Escherichia coli O157:H7) (UniProt P08026)
Test: not given

Q: With B3 as the binder, how does the EC50 (read off the curve) read?
A: 0.6 nM

Q: For B6, which EC50 (read off the curve) is on record?
A: 0.5 nM

Molecular target: Shiga toxin 1 (Stx1) (Escherichia coli O157:H7) (UniProt P08026)
Test: cell-based or functional assay

Q: For B1, which IC50, Vero cell neutralization assay is on record?
A: 10 nM

Q: How did the IC50, Vero cell neutralization assay turn out when B2 was run?
A: 0.05 nM

Q: For B3, which IC50, Vero cell neutralization assay is on record?
A: 1 nM

Q: How did the IC50, Vero cell neutralization assay turn out when B8 was run?
A: > 1000 nM

Q: With B4 as the binder, how does the IC50, Vero cell neutralization assay read?
A: > 330 nM

Q: How did the IC50, Vero cell neutralization assay turn out when B5 was run?
A: 100 nM

Q: How did the IC50, Vero cell neutralization assay turn out when B6 was run?
A: > 1000 nM

Q: For B9, which IC50, Vero cell neutralization assay is on record?
A: > 1000 nM

Q: How did the IC50, Vero cell neutralization assay turn out when B10 was run?
A: > 1000 nM

Q: With B11 as the binder, how does the IC50, Vero cell neutralization assay read?
A: > 100 nM

Q: For B7, which IC50, Vero cell neutralization assay is on record?
A: 50 nM

Q: For B12, which IC50, Vero cell neutralization assay is on record?
A: > 1000 nM

Molecular target: Shiga toxin 1 (Stx1) (Escherichia coli O157:H7) (UniProt P08026)
Test: not given
Remark: another data set of the same source

Q: With B2 as the binder, how does the EC50 (read off the curve) read?
A: 0.5 nM

Molecular target: Shiga toxin 1 (Stx1) (Escherichia coli O157:H7) (UniProt P08026)
Test: dilution ELISA, HRP-anti-E-tag

Q: Which EC50 does the source give for B1 here?
A: 10 nM

Q: B2 was tested. Which EC50 did it give?
A: 0.5 nM

Q: How did the EC50 turn out when B3 was run?
A: 0.6 nM

Q: Which EC50 does the source give for B8 here?
A: > 1000 nM

Q: Which EC50 does the source give for B4 here?
A: 30 nM

Q: How did the EC50 turn out when B5 was run?
A: 15 nM

Q: B13 was tested. Which EC50 did it give?
A: > 1000 nM

Q: How did the EC50 turn out when B14 was run?
A: > 1000 nM

Q: With B6 as the binder, how does the EC50 read?
A: 0.5 nM

Q: B9 was tested. Which EC50 did it give?
A: > 1000 nM

Q: With B10 as the binder, how does the EC50 read?
A: > 1000 nM

Q: For B11, which EC50 is on record?
A: > 1000 nM

Q: For B7, which EC50 is on record?
A: 30 nM

Q: Which EC50 does the source give for B12 here?
A: > 1000 nM

Molecular target: T1, Botulinum neurotoxin serotype B …
Test: SPR; chip ligand for BoNT/B not described

Q: B15 was tested. Which Kd did it give?
A: 5.3 nM

Q: How did the Kd turn out when B16 was run?
A: 0.97 nM

Q: B17 was tested. Which Kd did it give?
A: 0.84 nM
